Source: article PMC12974146

Target: Recombinant CdaA fragment spanning residues 88-273 (CdaA_(88-273)), Leptospira interrogans LIC10844 (Leptospira interrogans serovar Copenhageni strain Fiocruz L1-130)
Experiment: SEC; TSKgel G4000SWXL column, PBS as mobile phase, 1.0 mL min^-1; 50 µg of protein injected; MW estimated from a standard curve of 15-600 kDa protein standards

- stoichiometry N: 2
Substance: Recombinant CdaA fragment spanning residues 88-273 (CdaA_(88-273)), Leptospira interrogans LIC10844 (domain or fragment)
